The values below come from US20240336672A1.

For experiment [1], the target named is SARS-CoV-2 δ variant spike protein, cell-expressed (SARS-CoV-2). Nature of the experiment: flow cytometry (Mock 2.5). For orientation: A flow cytometer gives signals particle by particle.
The target of a further experiment is α (SARS-CoV-2). Put plainly: flow cytometry (Mock 2.5).
Another experiment deals with β (SARS-CoV-2). Nature of the experiment: flow cytometry (Mock 2.5).
Another experiment has as its target γ (SARS-CoV-2). Nature of the experiment: flow cytometry (Mock 2.5).
A further experiment deals with ε (SARS-CoV-2). Put plainly: flow cytometry (Mock 2.5).
The target of the next experiment is ι (SARS-CoV-2). Put plainly: flow cytometry (Mock 2.5).
The target of a further experiment is κ (SARS-CoV-2). Nature of the experiment: flow cytometry (Mock 2.5).
In experiment [2] the target is T1, SARS-CoV-2 omicron variant B.1.1.529 Spike ectodomain (tri-S, HexaPro) (SARS-CoV-2), P0DTC2. As to conditions: remark: other sources report otherwise.
In experiment [3] the target is SARS-CoV-2 delta plus variant RBD (SARS-CoV-2). Nature of the experiment: ELISA. As to conditions: remark: other sources report otherwise. For orientation: An ELISA detects its analyte on a solid surface through an enzyme-linked reagent.
Experiment [4] deals with SARS-CoV-2 delta variant B.1.617.2/3 RBD domain (SARS-CoV-2). Nature of the experiment: ELISA. The note with it: remark: other sources report otherwise.
Experiment [5] deals with SARS-CoV-2 kappa variant B.1.617.1/3 RBD domain (SARS-CoV-2). Put plainly: ELISA. As to conditions: remark: other sources report otherwise.
Experiment [6] has as its target SARS-CoV-2 omicron variant B.1.1.529 RBD domain (SARS-CoV-2). Put plainly: ELISA; unit from paragraph 452, none printed in the heatmap. As to conditions: remark: other sources report otherwise.
For experiment [7], the target named is T1, SARS-CoV-2 omicron variant B.1.1.529 …. The experiment is described as above. The note with it: remark: other sources report otherwise.

B1: Imdevimab (antibody, V domains shown)
VH: QVQLVESGGGVVQPGRSLRLSCAASGFTFSNYAMYWVRQAPGKGLEWVAVISYDGSNKYYADSVKGRFTISRDNSKNTLYLQMNSLRTEDTAVYYCASGSDYGDYLLVYWGQGTLVTVSS
VL: QSALTQPASVSGSPGQSITISCTGTSSDVGGYNYVSWYQQHPGKAPKLMIYDVSKRPSGVSNRFSGSKSGNTASLTISGLQSEDEADYYCNSLTSISTWVFGGGTKLTVL
B1: the log10 ΔgMFI came out at 4.5 in experiment [1]; 4.4 in the experiment with α (SARS-CoV-2); 3.9 with β (SARS-CoV-2); 4.6 in the experiment with γ (SARS-CoV-2); 4.5 with ε (SARS-CoV-2); 4.9 with ι (SARS-CoV-2). Also, the log10 ΔgMFI in the experiment with κ (SARS-CoV-2) was found to be 4.7.

B2: Adintrevimab (antibody, V domains shown)
VH: EVQLVESGGGLVKPGGSLRLSCAASGFTFSSYYMNWVRQAPGKGLEWVSSISEDGYSTYYPDSLKGRFTISRDSAKNSLYLQMNSLRADDTAVYYCARDFSGHTAWAGTGFEYWGQGTLVTVSS
VL: QSVLTQPPSVSGAPGQRITISCTGSSSNIGAGYDVHWYQQLPGTAPKLLIYGSSSRNSGVPDRFSGSKSGTSASLAITGLQAEDEADYYCQSYDSSLSVLYTFGTGTKVTVL
Regarding B2, in experiment [2], the IC50 (commonly the concentration that gives 50% inhibition) was over 2 µg/mL. The values for the OD405nm in experiment [3], in experiment [4] and in experiment [5] were 3.4, 3.4 and 3.6, respectively. Further, the EC50 (in general, the midpoint of the concentration-response curve) came to 0.056 µg/mL in [6] and 0.009 µg/mL in experiment [7].
